Reference: patent publication US7662384B2, “Use of anti-α5β1 antibodies to inhibit cancer cell proliferation” (Facet Biotech Corporation, priority 2004, dated 2010)

Experiments:
VX2 cancer cells = experiment: SCID mouse VX2 xenograft model; format: in vivo; conditions: SCID mice; 10 mg/kg intraperitoneally, 3 times/week for 3 weeks
Description: (§1) Immune compromised mice CB-17 SCID (strain C.B-Igh1/IcrTac-Prkdc) were obtained from Taconic Farms (Germantown, N.Y.). Studies were initiated using female mice between the ages of 6-10 weeks (˜20 grams in weight). Animals were pre-dosed with M200, IIA1, or control IgG intraperitoneally at a dose of 10 mg/kg one hour prior to VX2 inoculation (1×10^7 cells in Iscove's Modified Dulbecco's Medium) into the mammary fat pad. Dosing was continued for 3 weeks at a frequency of 3 times/week at 10 mg/kg. Tumor volume was measured twice weekly by caliper and calculated by π/6×length×width×height. Clinical and mortality observations were performed daily according to IACUC regulations.

LOX cells = experiment: LOX orthotopic xenograft in SCID mice; format: in vivo; conditions: 10 mg/kg intraperitoneally, 3 times/week for 3 weeks
Description: (§2) NW231 and LOX cells were grown as orthotopic xenografts in SCID mice and challenged with the anti-α5β1 antibodies M200 and IIA1 by intraperitoneal injection.
as §1, with “M200, IIA1” for “M200, IIA1,”, “mg/kg 1” for “mg/kg one”, “to NW231” for “to VX2”, “in IMDM)” for “in Iscove's Modified Dulbecco's Medium)”, “Dosing” for “Dosing was”

mouse α5β1 integrin = mouse α5β1 integrin (Mus musculus, UniProt P09055+P11688); experiment: species cross-reactivity of anti-α5β1 antibody; format: binding
Chain of mouse α5β1 integrin (P11688 45-1053): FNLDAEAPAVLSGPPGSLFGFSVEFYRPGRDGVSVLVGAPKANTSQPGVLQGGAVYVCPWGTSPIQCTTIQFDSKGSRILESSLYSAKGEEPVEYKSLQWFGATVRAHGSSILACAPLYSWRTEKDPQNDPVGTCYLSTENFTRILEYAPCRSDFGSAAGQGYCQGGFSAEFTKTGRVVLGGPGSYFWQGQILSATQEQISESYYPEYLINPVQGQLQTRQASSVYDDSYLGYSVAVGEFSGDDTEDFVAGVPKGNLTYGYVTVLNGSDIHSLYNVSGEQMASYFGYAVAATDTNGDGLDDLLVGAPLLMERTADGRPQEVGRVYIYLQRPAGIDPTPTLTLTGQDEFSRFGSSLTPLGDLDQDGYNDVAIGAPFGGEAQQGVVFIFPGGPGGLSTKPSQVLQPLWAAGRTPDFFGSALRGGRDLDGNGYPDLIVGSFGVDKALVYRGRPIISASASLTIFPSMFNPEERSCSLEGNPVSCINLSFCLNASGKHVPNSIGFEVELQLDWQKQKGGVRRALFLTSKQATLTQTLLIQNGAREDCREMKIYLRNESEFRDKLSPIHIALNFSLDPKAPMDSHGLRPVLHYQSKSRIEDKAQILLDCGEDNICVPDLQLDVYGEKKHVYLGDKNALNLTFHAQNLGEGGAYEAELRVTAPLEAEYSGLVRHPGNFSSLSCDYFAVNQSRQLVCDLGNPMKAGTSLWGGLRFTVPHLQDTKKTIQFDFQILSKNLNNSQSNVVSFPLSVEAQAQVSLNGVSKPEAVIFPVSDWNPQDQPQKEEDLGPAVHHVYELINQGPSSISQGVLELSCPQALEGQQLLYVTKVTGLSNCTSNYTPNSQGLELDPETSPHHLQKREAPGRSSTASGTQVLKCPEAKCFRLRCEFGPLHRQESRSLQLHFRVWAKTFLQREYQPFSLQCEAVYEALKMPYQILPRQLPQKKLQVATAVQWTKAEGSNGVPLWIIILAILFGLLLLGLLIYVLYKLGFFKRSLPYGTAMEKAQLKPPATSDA
Chain of mouse α5β1 integrin (P09055 21-798): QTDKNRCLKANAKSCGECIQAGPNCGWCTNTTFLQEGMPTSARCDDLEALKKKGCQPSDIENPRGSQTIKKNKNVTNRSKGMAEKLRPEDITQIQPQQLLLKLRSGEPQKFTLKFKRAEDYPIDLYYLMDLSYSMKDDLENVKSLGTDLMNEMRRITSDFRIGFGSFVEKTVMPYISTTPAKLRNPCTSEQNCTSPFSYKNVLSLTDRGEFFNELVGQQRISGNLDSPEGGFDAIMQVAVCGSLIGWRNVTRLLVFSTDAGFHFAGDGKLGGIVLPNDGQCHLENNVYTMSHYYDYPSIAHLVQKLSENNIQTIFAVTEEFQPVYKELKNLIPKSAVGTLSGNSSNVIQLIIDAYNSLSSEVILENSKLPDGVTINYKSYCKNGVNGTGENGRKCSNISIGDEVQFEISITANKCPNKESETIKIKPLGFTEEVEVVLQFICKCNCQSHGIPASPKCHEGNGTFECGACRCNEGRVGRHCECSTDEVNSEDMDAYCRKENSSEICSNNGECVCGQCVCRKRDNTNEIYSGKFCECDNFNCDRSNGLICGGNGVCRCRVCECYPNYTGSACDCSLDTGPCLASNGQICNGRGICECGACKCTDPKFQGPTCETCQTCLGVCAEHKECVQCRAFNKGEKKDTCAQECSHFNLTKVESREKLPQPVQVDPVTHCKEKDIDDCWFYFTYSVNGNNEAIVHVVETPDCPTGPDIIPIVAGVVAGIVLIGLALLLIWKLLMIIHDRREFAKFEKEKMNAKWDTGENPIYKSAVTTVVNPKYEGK

NW231 cells = experiment: NW231 orthotopic xenograft in SCID mice; format: in vivo; conditions: 10 mg/kg intraperitoneally, 3 times/week for 3 weeks
Description: as §2
as §1, with “M200, IIA1” for “M200, IIA1,”, “mg/kg 1” for “mg/kg one”, “to NW231” for “to VX2”, “in IMDM)” for “in Iscove's Modified Dulbecco's Medium)”, “Dosing” for “Dosing was”

VX2 tumors = conditions: rabbit, in vivo, 10 mg/kg
Description: Rabbits were inoculated on Day 0 with a cell suspension (100 μl) subcutaneously (left hind limb), and intramuscularly at a depth of about 3 mm (right hind limb). Intramuscular inoculation was carried out as follows. With the rabbit under ketamine/isoflurane anesthesia, a ˜2 cm incision was made parallel to the right femur with a scalpel on the anterior, lateral aspect of the femoral axis, ˜⅓ of the total femur length distally from the femoral-pelvic (hip) joint. Muscle groups were separated to create a ˜0.5 cm deep cavity. One VX2 tumor fragment from a donor animal was placed into the cavity. Skin was securely closed with sterile surgical staples or sutures and a topical antibiotic was applied to the wound site.
M200 was administered intravenously at 10 mg/kg dosage to a tumor-bearing rabbit and the tumor was excised 1 hour later. Tumor sections were stained with either: (i) an anti-human secondary antibody specific for tumor bound M200; (ii) IIA1 followed by an anti-mouse secondary to detect total α5β1; or (iii) a control IgG and anti-mouse secondary.

angiogenesis = conditions: monkey eye model; cited from earlier work
CAPAN-1 = experiment: M200 in vitro cell proliferation assay; format: cell-based; conditions: CAPAN-1 (pancreas), 4-day assay
Description: (§3) Cancer cell lines were plated at a density of 2500 cells/well in 96-well plates in IMDM with supplements in the presence or absence of 10% FBS. At the time of plating, cells were challenged with various concentrations M200 or a non-function blocking anti-α5 antibody, VC5. Four days later, cell viability was assessed by the CellTiter 96 AQueous Non-Radioactive Cell Proliferation Assay (Promega) according to the manufacturer's instructions. All growth studies were done at least 3 times in triplicate.

A498 = experiment: M200 in vitro cell proliferation assay; format: cell-based; conditions: A498 (renal), 4-day assay
Description: as §3

MIA PACA-2 = experiment: M200 in vitro cell proliferation assay; format: cell-based; conditions: MIA PACA-2 (pancreas), 4-day assay
Description: as §3

HT1376 = experiment: M200 in vitro cell proliferation assay; format: cell-based; conditions: HT1376 (bladder), 4-day assay
Description: as §3

UACC-62 = experiment: M200 in vitro cell proliferation assay; format: cell-based; conditions: UACC-62 (melanoma), 4-day assay
Description: as §3

HT144 = experiment: M200 in vitro cell proliferation assay; format: cell-based; conditions: HT144 (melanoma), 4-day assay
Description: as §3

HT1080 = experiment: M200 in vitro cell proliferation assay; format: cell-based; conditions: HT1080 (fibrosarcoma), 4-day assay
Description: as §3

HCT-116 = experiment: M200 in vitro cell proliferation assay; format: cell-based; conditions: HCT-116 (colon), 4-day assay
Description: as §3

ES-2 = experiment: M200 in vitro cell proliferation assay; format: cell-based; conditions: ES-2 (ovarian), 4-day assay
Description: as §3

SW839 = experiment: M200 in vitro cell proliferation assay; format: cell-based; conditions: SW839 (renal), 4-day assay
Description: as §3

SN12C = experiment: M200 in vitro cell proliferation assay; format: cell-based; conditions: SN12C (renal), 4-day assay
Description: as §3

C8161 = experiment: M200 in vitro cell proliferation assay; format: cell-based; conditions: C8161 (melanoma), 4-day assay
Description: as §3

A2058 = experiment: M200 in vitro cell proliferation assay; format: cell-based; conditions: A2058 (melanoma), 4-day assay
Description: as §3

EKVX = experiment: M200 in vitro cell proliferation assay; format: cell-based; conditions: EKVX (lung), 4-day assay
Description: as §3

DU145 = experiment: M200 in vitro cell proliferation assay; format: cell-based; conditions: DU145 (prostate), 4-day assay
Description: as §3

H460 = experiment: M200 in vitro cell proliferation assay; format: cell-based; conditions: H460 (lung), 4-day assay
Description: as §3

A375 = experiment: M200 in vitro cell proliferation assay; format: cell-based; conditions: A375 (melanoma), 4-day assay
Description: as §3

C32 = experiment: M200 in vitro cell proliferation assay; format: cell-based; conditions: C32 (melanoma), 4-day assay
Description: as §3

TK-10 = experiment: M200 in vitro cell proliferation assay; format: cell-based; conditions: TK-10 (renal), 4-day assay
Description: as §3

[1] = minimum effective in vitro concentration

B1: IIA1: parent mouse IgG1 class anti-α5β1 antibody shown to inhibit α5β1 integrin binding to fibronectin (antibody, V domains shown)
VH: MAVLGLLLCLVTFPSCVLSQVQLKESGPGLVAPSQSLSITCTISGFSLTDYGVHWVRQPPGKGLEWLVVIWSDGSSTYNSALKSRMTIRKDNSKSQVFLIMNSLQTDDSAMYYCARHGTYYGMTTTGDALDYWGQGTSVTVSS
VL: MDFQVQIFSFLLISASVIMSRGQIVLTQSPAIMSASLGERVTMTCTASSSVSSNYLHWYQQKPGSAPNLWIYSTSNLASGVPARFSGSGSGTSYSLTISSMEAEDAATYYCHQYLRSPPTFGGGTKLEIK
modifications: mus muscalus
VX2 cancer cells
  VX2 xenograft tumor growth versus control IgG: did not correlate with a decreased rate of VX2 tumor growth
LOX cells
  LOX xenograft tumor growth: reproducibly inhibit
Mouse α5β1 integrin
  recognition of mouse α5β1 integrin: does not recognize
NW231 cells
  NW231 xenograft tumor growth: reproducibly inhibit

B2: M200: chimeric IgG4 anti-α5β1 antibody derived from IIA1; generic name volociximab (antibody, V domains shown)
VH: MAVLGLLLCLVTFPSCVLSQVQLKESGPGLVAPSQSLSITCTISGFSLTDYGVHWVRQPPGKGLEWLVVIWSDGSSTYNSALKSRMTIRKDNSKSQVFLIMNSLQTDDSAMYYCARHGTYYGMTTTGDALDYWGQGTSVTVSS
VL: MDFQVQIFSFLLISASVIMSRGQIVLTQSPAIMSASLGERVTMTCTASSSVSSNYLHWYQQKPGSAPNLWIYSTSNLASGVPARFSGSGSGTSYSLTISSMEAEDAATYYCHQYLRSPPTFGGGTKLEIKDMSVDMSV
modifications: chimeric antibody
notes: chimeric IgG4 anti-α5β1 antibody derived from IIA1; generic name volociximab
VX2 cancer cells
  VX2 xenograft tumor growth versus control IgG: did not correlate with a decreased rate of VX2 tumor growth
LOX cells
  LOX xenograft tumor growth: not found to reproducibly inhibit tumor growth
VX2 tumors
  accessibility of subcutaneous and intramuscular VX2 tumors to antibody, assessed by IHC: accessible to M200
angiogenesis
  in vivo anti-angiogenic efficacy: in vivo anti-angiogenic efficacy
CAPAN-1; 10% FBS
  % Growth Inhibition +Serum: 0%
CAPAN-1; absence of serum
  % Growth Inhibition −Serum: 0%
A498; 10% FBS
  % Growth Inhibition +Serum: 0%
A498; absence of serum
  % Growth Inhibition −Serum: 5%
MIA PACA-2; 10% FBS
  % Growth Inhibition +Serum: 0%
MIA PACA-2; absence of serum
  % Growth Inhibition −Serum: 20%
HT1376; 10% FBS
  % Growth Inhibition +Serum: 0%
HT1376; absence of serum
  % Growth Inhibition −Serum: 0%
UACC-62; 10% FBS
  % Growth Inhibition +Serum: 0%
UACC-62; absence of serum
  % Growth Inhibition −Serum: 0%
HT144; 10% FBS
  % Growth Inhibition +Serum: 0%
HT144; absence of serum
  % Growth Inhibition −Serum: 0%
HT1080; 10% FBS
  % Growth Inhibition +Serum: 0%
HT1080; absence of serum
  % Growth Inhibition −Serum: 0%
HCT-116; 10% FBS
  % Growth Inhibition +Serum: 0%
HCT-116; absence of serum
  % Growth Inhibition −Serum: 15%
ES-2; 10% FBS
  % Growth Inhibition +Serum: 0%
ES-2; absence of serum
  % Growth Inhibition −Serum: 0%
SW839; 10% FBS
  % Growth Inhibition +Serum: 0%
SW839; absence of serum
  % Growth Inhibition −Serum: 30%
SN12C; 10% FBS
  % Growth Inhibition +Serum: 0%
SN12C; absence of serum
  % Growth Inhibition −Serum: 5%
C8161; 10% FBS
  % Growth Inhibition +Serum: 0%
C8161; absence of serum
  % Growth Inhibition −Serum: 0%
A2058; 10% FBS
  % Growth Inhibition +Serum: 0%
A2058; absence of serum
  % Growth Inhibition −Serum: 0%
EKVX; 10% FBS
  % Growth Inhibition +Serum: 0%
EKVX; absence of serum
  % Growth Inhibition −Serum: 10%
DU145; 10% FBS
  % Growth Inhibition +Serum: 0%
DU145; absence of serum
  % Growth Inhibition −Serum: 0%
H460; 10% FBS
  % Growth Inhibition +Serum: 0%
H460; absence of serum
  % Growth Inhibition −Serum: 40%
A375; 10% FBS
  % Growth Inhibition +Serum: 0%
A375; absence of serum
  % Growth Inhibition −Serum: 5%
C32; 10% FBS
  % Growth Inhibition +Serum: 0%
C32; absence of serum
  % Growth Inhibition −Serum: 0%
TK-10; 10% FBS
  % Growth Inhibition +Serum: 0%
TK-10; absence of serum
  % Growth Inhibition −Serum: 0%
[1]
  minimum effective in vitro concentration: 2 to 3 µg/mL
Mouse α5β1 integrin
  recognition of mouse α5β1 integrin: does not cross react
NW231 cells
  NW231 xenograft tumor growth: not found to reproducibly inhibit tumor growth
